Experimental findings from paper PMC10397247 are described below.

Where two headings read alike, the source gives them in different places.

Assay [1] addresses T1, 4H953-AA.
T1 chain: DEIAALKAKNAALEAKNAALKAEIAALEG
Description: two-hybrid library CCmax.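 Further: natural log of median RNA to DNA barcode read ratio; higher means stronger binding.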 The settings on record: mean of both orientations.

Assay [2] has as its target T2, 4H967-AA.
T2 chain: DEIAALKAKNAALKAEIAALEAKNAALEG
Description: two-hybrid library CCmax.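 Further: natural log of median RNA to DNA barcode read ratio; higher means stronger binding.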 The following applies: mean of both orientations.

Assay [3] deals with T3, 4H918-AA.
T3 chain: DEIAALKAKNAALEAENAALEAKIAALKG
Description: two-hybrid library CCmax.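 Further: natural log of median RNA to DNA barcode read ratio; higher means stronger binding.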

In assay [4] the target is T4, O9-bA.
T4 chain: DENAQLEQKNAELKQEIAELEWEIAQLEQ
Description: two-hybrid library CCNG1.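 Further: natural log of median RNA to DNA barcode read ratio; higher means stronger binding.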

The target of assay [5] is T5, 4H4033-AA.
T5 chain: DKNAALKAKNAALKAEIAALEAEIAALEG
Description: two-hybrid library CCmax. The following applies: mean of both orientations.

For assay [6], the target named is T6, 4H3922-AA.
T6 chain: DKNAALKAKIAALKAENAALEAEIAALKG
Description: two-hybrid library CCmax. The settings on record: mean of both orientations.

Assay [7] addresses T7, 4H3625-AA.
T7 chain: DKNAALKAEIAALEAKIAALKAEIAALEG
Nature of the assay: two-hybrid library CCmax.

Assay [8] addresses T8, 4H3605-AA.
T8 chain: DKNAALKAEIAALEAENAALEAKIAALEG
Nature of the assay: two-hybrid library CCmax.

For assay [9], the target named is T9, 4H481-AA.
T9 chain: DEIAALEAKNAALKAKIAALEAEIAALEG
Description: two-hybrid library CCmax. The following applies: mean of both orientations.

For assay [10], the target named is T10, 4H55-AA.
T10 chain: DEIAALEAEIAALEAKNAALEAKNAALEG
Description: two-hybrid library CCmax.

Assay [11] has as its target T11, 4H3664-AA.
T11 chain: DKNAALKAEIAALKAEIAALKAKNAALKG
Description: two-hybrid library CCmax. The following applies: mean of both orientations.

The target in assay [12] is T12, 4H369-AA.
T12 chain: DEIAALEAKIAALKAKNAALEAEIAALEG
Nature of the assay: two-hybrid library CCmax. The following applies: mean of both orientations.

Assay [13] deals with T13, 4H662-AA.
T13 chain: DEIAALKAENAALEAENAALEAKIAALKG
Nature of the assay: two-hybrid library CCmax. The following applies: mean of both orientations.

In assay [14] the target is T14, 4H3697-AA.
T14 chain: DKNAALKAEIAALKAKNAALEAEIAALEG
Nature of the assay: two-hybrid library CCmax.

Assay [15] has as its target T15, 4H697-AA.
T15 chain: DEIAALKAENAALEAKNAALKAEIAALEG
Description: two-hybrid library CCmax. The following applies: mean of both orientations.

Assay [16] deals with T16, 4H3718-AA.
T16 chain: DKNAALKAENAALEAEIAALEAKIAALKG
Nature of the assay: two-hybrid library CCmax. The settings on record: mean of both orientations.

Assay [17] concerns the target T17, 4H3606-AA.
T17 chain: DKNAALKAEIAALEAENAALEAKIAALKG
Nature of the assay: two-hybrid library CCmax. The following applies: mean of both orientations.

Assay [18] deals with T18, 4H3056-AA.
T18 chain: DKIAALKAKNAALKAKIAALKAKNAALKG
Nature of the assay: two-hybrid library CCmax. The settings on record: mean of both orientations.

Assay [19] concerns the target T19, 4H2620-AA.
T19 chain: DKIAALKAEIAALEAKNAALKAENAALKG
Description: two-hybrid library CCmax.

Assay [20] has as its target T20, 4H3631-AA.
T20 chain: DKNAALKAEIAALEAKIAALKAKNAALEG
Description: two-hybrid library CCmax. The following applies: mean of both orientations.

The target of assay [21] is T21, 4H3413-AA.
T21 chain: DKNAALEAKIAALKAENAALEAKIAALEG
Description: two-hybrid library CCmax. The following applies: mean of both orientations.

The target of assay [22] is T22, 4H32-AA.
T22 chain: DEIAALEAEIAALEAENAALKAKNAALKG
Nature of the assay: two-hybrid library CCmax. The following applies: mean of both orientations.

The target of assay [23] is T23, 4H2907-AA.
T23 chain: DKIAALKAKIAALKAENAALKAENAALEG
Nature of the assay: two-hybrid library CCmax. The following applies: mean of both orientations.

Assay [24] deals with T24, 4H3162-AA.
T24 chain: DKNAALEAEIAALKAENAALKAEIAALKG
Description: two-hybrid library CCmax. The settings on record: mean of both orientations.

The target in assay [25] is T25, 4H3133-AA.
T25 chain: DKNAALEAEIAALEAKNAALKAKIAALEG
Description: two-hybrid library CCmax. The following applies: mean of both orientations.

Assay [26] deals with T26, 4H982-AA.
T26 chain: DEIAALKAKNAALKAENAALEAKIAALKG
Description: two-hybrid library CCmax. The following applies: mean of both orientations.

Assay [27] addresses T27, 4H3588-AA.
T27 chain: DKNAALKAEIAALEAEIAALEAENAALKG
Description: two-hybrid library CCmax. The settings on record: mean of both orientations.

Assay [28] concerns the target T28, 4H340-AA.
T28 chain: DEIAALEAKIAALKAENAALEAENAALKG
Nature of the assay: two-hybrid library CCmax. The settings on record: mean of both orientations.

The target of assay [29] is T29, 4H3378-AA.
T29 chain: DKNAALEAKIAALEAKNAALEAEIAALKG
Nature of the assay: two-hybrid library CCmax. The following applies: mean of both orientations.

Assay [30] has as its target T30, 4H2648-AA.
T30 chain: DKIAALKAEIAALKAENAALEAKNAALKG
Description: two-hybrid library CCmax. The settings on record: mean of both orientations.

Assay [31] deals with T31, 4H384-AA.
T31 chain: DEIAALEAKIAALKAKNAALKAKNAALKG
Nature of the assay: two-hybrid library CCmax. The settings on record: mean of both orientations.

Assay [32] has as its target T32, 4H3865-AA.
T32 chain: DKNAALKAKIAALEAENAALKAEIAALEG
Nature of the assay: two-hybrid library CCmax. The following applies: mean of both orientations.

Assay [33] concerns the target T33, O8-bA.
T33 chain: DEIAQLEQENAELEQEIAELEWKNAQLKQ
Description: two-hybrid library CCNG1.

Assay [34] has as its target T34, 4H775-AA.
T34 chain: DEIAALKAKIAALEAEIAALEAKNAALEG
Description: two-hybrid library CCmax. The following applies: mean of both orientations.

Assay [35] concerns the target T35, O11-AA.
T35 chain: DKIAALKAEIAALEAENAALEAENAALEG
Description: two-hybrid library CCmax. The following applies: mean of both orientations.

Assay [36] concerns the target GCN2_T. Description: two-hybrid library CCmax.
For assay [37], the target named is T36, 4H87-AA.
T36 chain: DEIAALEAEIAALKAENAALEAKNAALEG
Description: two-hybrid library CCmax. The following applies: mean of both orientations.

Assay [38] deals with T37, 4H3940-AA.
T37 chain: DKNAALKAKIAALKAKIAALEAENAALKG
Description: two-hybrid library CCmax. The settings on record: mean of both orientations.

Assay [39] concerns the target T38, 4H451-AA.
T38 chain: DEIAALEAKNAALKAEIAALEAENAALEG
Nature of the assay: two-hybrid library CCmax. The following applies: mean of both orientations.

In assay [40] the target is T39, 4H43-AA.
T39 chain: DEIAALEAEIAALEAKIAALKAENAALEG
Nature of the assay: two-hybrid library CCmax. The settings on record: mean of both orientations.

The target of assay [41] is T40, 4H4038-AA.
T40 chain: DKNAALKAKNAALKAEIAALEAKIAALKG
Nature of the assay: two-hybrid library CCmax. The settings on record: mean of both orientations.

For assay [42], the target named is T41, 4H_BCR.
T41 chain: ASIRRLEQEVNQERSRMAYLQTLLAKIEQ
Nature of the assay: two-hybrid library CCmax. The following applies: mean of both orientations.

Assay [43] concerns the target 4H_GCN4. Nature of the assay: two-hybrid library CCmax.
In assay [44] the target is T42, O14-AA.
T42 chain: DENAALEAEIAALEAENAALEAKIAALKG
Nature of the assay: two-hybrid library CCmax. The following applies: mean of both orientations.

For assay [45], the target named is T43, O13-AA.
T43 chain: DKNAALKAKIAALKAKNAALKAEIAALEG
Description: two-hybrid library CCmax. The settings on record: mean of both orientations.

Assay [46] deals with T44, 4H816-AA.
T44 chain: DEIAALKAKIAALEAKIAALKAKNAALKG
Nature of the assay: two-hybrid library CCmax. The settings on record: mean of both orientations.

Assay [47] concerns the target T45, 4H390-AA.
T45 chain: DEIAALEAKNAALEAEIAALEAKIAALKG
Description: two-hybrid library CCmax. The settings on record: mean of both orientations.

Assay [48] addresses T46, 4H_APH.
T46 chain: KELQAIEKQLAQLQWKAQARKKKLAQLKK
Description: two-hybrid library CCmax. The settings on record: mean of both orientations.

The target in assay [49] is T47, 4H510-AA.
T47 chain: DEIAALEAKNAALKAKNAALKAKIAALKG
Nature of the assay: two-hybrid library CCmax. The settings on record: mean of both orientations.

Assay [50] has as its target T48, 4H3905-AA.
T48 chain: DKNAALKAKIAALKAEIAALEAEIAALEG
Nature of the assay: two-hybrid library CCmax.

Chain of 4H_GCN4 (chain, as listed by the source): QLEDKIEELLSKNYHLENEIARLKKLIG

In the case of DEIAALKAKNAALEAENAALEAKIAALKG [4H918-AA], the interaction score was 2.09 in [1], -0.889 in assay [2] and 1.24 in assay [3].
Consider DENAQLEQKNAELKQEIAELEWEIAQLEQ [O9-bA], for which, in [4] (mean of both orientations), the interaction score is -0.959.
On to DKNAALKAEIAALEAENAALEAKIAALEG [4H3605-AA], for which the interaction score in assay [5] was -1.31; in assay [6], -0.251; in assay [7] (mean of both orientations), -0.874; in assay [8], -1.34; in [9] it was 0.557; in assay [10], -1.29. In addition, the figures for the interaction score in assay [11], in [12] and in assay [13] were -1.67, 1.77 and -1.77, respectively.
On to DKIAALKAEIAALEAKNAALKAENAALKG [4H2620-AA], for which the interaction score is -1.64 in assay [14]; -1.54 in assay [15]; -0.835 in [16]; -0.861 in assay [17]; -1.79 in [18]; 0.586 in assay [19]. In addition, the interaction score in assay [20] was -0.556; in assay [21], -0.901; in assay [22] it was 1.05; in [23], 1.23; in [24], -1.82; in [25], -1.58. Further, the interaction score in assay [26] was -0.887; in [27] it was 0.147; in [28], 2.42; in [29] it was -1.66; in assay [30], 1.77; in assay [31], 0.949. In assay [32], this molecule had an interaction score of -1.61.
With DEIAQLEQENAELEQEIAELEWKNAQLKQ [O8-bA], the values for the interaction score in assay [4] and in assay [33] were 0.317 and -0.832, respectively.
Regarding DKNAALKAEIAALEAKIAALKAEIAALEG [4H3625-AA], the interaction score is -0.401 in assay [5]; 0.881 in assay [34]; 0.185 in assay [6]; -1.53 in assay [35]; -0.674 in assay [36]; -0.904 in [37]. For the same molecule, the interaction score in assay [7] is 2.27; in assay [38], -0.199; in assay [9] it was -0.502; in [39], -1.64; in assay [40] it was 1.85; in assay [41], 1.61. Moreover, the interaction score in assay [10] (mean of both orientations) was -1.29; in assay [42], -1.17; in [43] (mean of both orientations), -0.702; in [44], 1.44; in assay [45], -1.47; in [11] it was -0.0768. The interaction score is 1.38 in assay [46]; -0.703 in assay [12]; -1.24 in assay [31]; 1.54 in assay [47]; -1.59 in assay [48]; -1.3 in assay [13]. The figures for the interaction score in assay [49] and in assay [50] (mean of both orientations) were -1.93 and 2.29, respectively.
Consider DKNAALKAKIAALKAEIAALEAEIAALEG [4H3905-AA], for which the interaction score in [35] is -1.04; in assay [36] it was -1.53; in assay [39], -1.34; in assay [40], 0.782; in assay [41] it was -0.568; in [42], -1.61. Moreover, the interaction score was -1.53 in [43]; 0.881 in [44]; 0.128 in [45]; -1.84 in assay [48]; -1.37 in [49]; 1.48 in [50].
